In US10550165B2, “Peptide for inducing regeneration of tissue and use thereof” (STEMRIM INC., priority 2011, dated 2020):

Assays:
[1] = system: mouse bone marrow mesenchymal stem cell line (MSC-1 cells), PDGFRα-positive; assay: Migration assay (Boyden / 48-well chemotaxis chamber) on bone marrow mesenchymal stem cell line MSC-1; assay type: cell-based
How it was run: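 Mouse MSC-1 cells (3×10^6 cells/ml in D-MEM with 10% FBS) loaded in the upper wells of a 48-well Boyden chamber with 8 μm polycarbonate membrane; mouse HMGB1 peptides or HEK293-made HMGB1 in lower wells at 100 μg/ml, 5 μM or 10 μM; PBS as negative control. After 4 h at 37° C, migrated cells were Diff-Quik stained.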

[2] = system: skin flap made on the back of a rat; assay: Skin flap (skin damage) model on the back of rats; assay type: in vivo
Procedure: Experimental animals used were SD rats (male, eight weeks old). After sufficiently deep anesthesia by isoflurane inhalation, a rectangular skin incision of 3 cm width×7 cm length was made on the back. The cephalic side was left uncut, and the skin was thoroughly detached from the subcutaneous tissues. The three incised sides were sutured to the surrounding skin using #4 silk suture, and protected with Tegaderm (3M) to prevent bacterial infection.
The full-length mouse HMGB1 (100 μg/administration/day) produced in HEK293 and chemically synthesized HMGB1 peptide (amino acids 1 to 44; 50 μg/administration/day) were diluted to 200 μl with phosphate buffer and administered to rats via the caudal vein. The first administration was performed 6 hours after the surgery, and then the agents were administered every 24 hours a total of five times. Phosphate-buffered physiological saline was administered as a negative control. Tegaderm was removed after one week, and the wound region was observed weekly to measure the areas of necrosis and ulceration.
Experimental animals used were 15 SD rats (male, eight weeks old) per group. After sufficient anesthesia by isoflurane inhalation, a rectangular skin incision of 3 cm width×7 cm length was made on the back. The cephalic side was left uncut, and the skin was thoroughly detached from the subcutaneous tissues. The incised three sides were sutured to the surrounding skin using #4 silk suture, and protected with Tegaderm (3M) to prevent bacterial infection.
Chemically synthesized HMGB1 peptide (amino acids 1-44; 50 μg/administration/day) or HMGB1 peptide (amino acids 17-25; 50 μg/administration/day) was diluted to 200 μl with phosphate buffer and administered to the rats with experimental wound. The first administration was performed 6 hours after the surgery, and then the agents were administered every 24 hours a total of five times. Phosphate-buffered physiological saline was administered as a negative control. Tegaderm was removed after one week, and the wound was observed two weeks after the wound production. Uncured areas (ulceration and necrosis) were measured.

[3] = Youn et al., J Immunol 2008; cited from earlier work
[4] = system: skin flap made on the back of a rat; assay: Skin flap (skin damage) model on the back of rats; assay type: in vivo; details: six weeks after skin flap production; 50 μg/administration/day, five administrations, FIG. 26
[5] = Side effects after administration of recombinant HMGB1 (previous studies of the inventors); assay type: in vivo; details: high concentration administered to mice or rats
Text: As described above, HMGB1 pharmaceuticals are revolutionary therapeutic agents that promote the recruitment of bone marrow mesenchymal stem cells into blood and accumulation of the cells to damaged tissues, thereby inducing tissue regeneration in the body. […] However, there are also reports that HMGB1 has an inflammatory effect. As described above, there are several findings on HMGB1; however, nothing is known about the effect of fragments of the HMGB1 protein on mesenchymal stem cells or what roles they play in tissue regeneration.

mesoangioblasts = details: Palumbo et al., J. Cell Biol. 2004; cited from earlier work
[6] = system: human-derived bone marrow mesenchymal stem cells (hMSC); assay: Migration assay on human-derived bone marrow mesenchymal stem cells; assay type: cell-based; details: human HMGB1 fragments produced in E. coli, 2 μM, FIG. 21B
Text: Human HMGB1 fragments (2-215, 2-84, 2-44, 45-84, 85-169, 89-185, 89-195, and 89-205) were produced in E. coli and purified using appropriate columns in the same manner as described in Examples 14, 15, and 16 above. However, 89-215 was purified by the same method as used for 89-205 in Example 15.
Using human-derived bone marrow mesenchymal stem cells, each fragment was examined by the same migration assay performed on mouse-derived bone marrow mesenchymal stem cells (MSC-1) as described above. The fragments were used at a final concentration of 2 μM. The human-derived bone marrow mesenchymal stem cells used were hMSC (human Mesenchymal Stem Cell, Takara) at fourth passage. The growth medium used was a mesenchymal stem cell growth medium (MF medium, TOYOBO). The cells were cultured in an incubator under 5% CO2 at 37° C. The medium was changed with a fresh medium every two to four days. The cells were passaged when they reached 80% confluency.

[7] = produced in E. coli, 2 μM, FIGS. 20B and 20C

1-215: whole mouse HMGB1 produced in HEK293, positive control [reference compound]
migration-promoting activity ([1]; protein and peptides produced using HEK293 (mouse HMGB1), 50 μg/ml, 4 h, FIG. 2A): showed migration-promoting activity | area of wound section (necrosed section) in the skin flap ([2]; one to three weeks after the skin flap was made, versus negative control, FIG. 25): effect of shrinking the wound section was confirmed | rats in which skin necrosis developed ([2]; one week after surgery, caudal vein, five administrations, full-length 100 μg, peptide 50 μg/administration/day, negative control four of five): three of five rats | rats with severe skin contracture ([2]; seven weeks after surgery, same regimen, negative control four of five, FIG. 24): three of five rats | LPS-binding activity [3]: known to have the binding activity with lipopolysaccharide (LPS)

(17-25): synthetic peptide consisting of the amino acid sequence from positions 17 to 25 of HMGB1 (AFFVQTCRE; UniProt P09429 17-25, looked up, fragment)
migration-promoting activity ([1]; synthetic peptides, 5 μM, FIGS. 8A and 8B): weak activity | ratio of the uncured area relative to the area of the whole skin flap, average ([2]; two weeks after skin flap production, 50 μg/administration/day, five administrations, 15 SD rats per group, FIG. 26): 9.1% | ratio of the uncured area relative to the area of the whole skin flap, average [4]: 3.5%

recombinant HMGB1 protein: recombinant HMGB1 protein administered to mice or rats in the inventors' previous studies
side effects [5]: no side effects were observed

B1: amino acids of positions 1 to 176: HMGB1 sequence consisting of the amino acids of positions 1 to 176 (Palumbo et al.) (protein, UniProt P09429 1-176, looked up, fragment)
chain: MGKGDPKKPRGKMSSYAFFVQTCREEHKKKHPDASVNFSEFSKKCSERWKTMSAKEKGKFEDMAKADKARYEREMKTYIPPKGETKKKFKDPNAPKRPPSAFFLFCSEYRPKIKGEHPGLSIGDVAKKLGEMWNNTAADDKQPYEKKAAKLKEKYEKDIAAYRAKGKPDAAKKGVV
cell migration-promoting activity (mesoangioblasts): almost no activity

B2: 89-185: human HMGB1 fragment, positions 89 to 185, produced in E. coli (protein, UniProt P09429 89-185, looked up, fragment)
chain: FKDPNAPKRPPSAFFLFCSEYRPKIKGEHPGLSIGDVAKKLGEMWNNTAADDKQPYEKKAAKLKEKYEKDIAAYRAKGKPDAAKKGVVKAEKSKKKK
migration-promoting activity ([1]; human HMGB1 fragments 89-215, 89-205, 89-195, 89-185 and their Q column fractions, E. coli, 2 μM, FIGS. 19B and 19D): stronger activity than any fragments between positions 89 and 215 | migration-promoting activity [6]: exhibited stronger activity

B3: amino acids 88 to 162: HMGB1 fragment of amino acids 88 to 162 (Youn et al.) (protein, UniProt P09429 88-162, looked up, fragment)
chain: KFKDPNAPKRPPSAFFLFCSEYRPKIKGEHPGLSIGDVAKKLGEMWNNTAADDKQPYEKKAAKLKEKYEKDIAAY
LPS-binding activity [3]: lack the LPS-binding activity

B4: Human HMGB1 fragment (85-169): human HMGB1 fragment, positions 85 to 169, produced in E. coli (protein, UniProt P09429 85-169, looked up, fragment)
chain: TKKKFKDPNAPKRPPSAFFLFCSEYRPKIKGEHPGLSIGDVAKKLGEMWNNTAADDKQPYEKKAAKLKEKYEKDIAAYRAKGKPD
migration-promoting activity compared with 2-215 ([1]; produced in E. coli, 2 μM, FIG. 20A): stronger migration-promoting activity on bone marrow mesenchymal stem cells than human HMGB1 fragment (2-215) | migration-promoting activity per equal mass (reference taken as 1) [1, 7]: 3.6 times | migration-promoting activity per molar (reference taken as 1) [1, 7]: 1.59 times | migration-promoting activity [6]: greater than that of human HMGB1 fragment (2-215)

B5: amino acids of positions 90 to 176: HMGB1 sequence consisting of the amino acids of positions 90 to 176 (Palumbo et al.) (protein, UniProt P09429 90-176, looked up, fragment)
chain: KDPNAPKRPPSAFFLFCSEYRPKIKGEHPGLSIGDVAKKLGEMWNNTAADDKQPYEKKAAKLKEKYEKDIAAYRAKGKPDAAKKGVV
cell migration-promoting activity (mesoangioblasts): almost no activity

B6: amino acids of positions 1 to 187: HMGB1 sequence of positions 1 to 187 resulting from cleavage at the C terminal end (Palumbo et al.) (protein, UniProt P09429 1-187, looked up, fragment)
chain: MGKGDPKKPRGKMSSYAFFVQTCREEHKKKHPDASVNFSEFSKKCSERWKTMSAKEKGKFEDMAKADKARYEREMKTYIPPKGETKKKFKDPNAPKRPPSAFFLFCSEYRPKIKGEHPGLSIGDVAKKLGEMWNNTAADDKQPYEKKAAKLKEKYEKDIAAYRAKGKPDAAKKGVVKAEKSKKKKEE
cell migration-promoting activity (mesoangioblasts): retains the cell migration-promoting activity of HMGB1

B7: amino acids 1 to 79: HMGB1 fragment of amino acids 1 to 79 (Youn et al.) (protein, UniProt P09429 1-79, looked up, fragment)
chain: MGKGDPKKPRGKMSSYAFFVQTCREEHKKKHPDASVNFSEFSKKCSERWKTMSAKEKGKFEDMAKADKARYEREMKTYI
LPS-binding activity [3]: lack the LPS-binding activity

B8: amino acids of positions 1 to 89: HMGB1 sequence consisting of the amino acids of positions 1 to 89 (Palumbo et al.) (protein, UniProt P09429 1-89, looked up, fragment)
chain: MGKGDPKKPRGKMSSYAFFVQTCREEHKKKHPDASVNFSEFSKKCSERWKTMSAKEKGKFEDMAKADKARYEREMKTYIPPKGETKKKF
cell migration-promoting activity (mesoangioblasts): almost no activity
